Target: the molecule itself
Test: cryo-EM structure

B1: zebrafish RAG1 (recombination-activating gene 1 protein), residues 271-1031, with N-terminal 6xHis-MBP tag (domain or fragment, UniProt O13033 271-1031, looked up)
chain: RCQRDHLSTKLIPTEVPADLIRAVTCQVCDHLLSDPVQSPCRHLFCRLCIIRYTHALGPNCPTCNQHLNPSHLIKPAKFFLATLSSLPLLCPSEECSDWVRLDSFREHCLNHYREKESQEEQTPSEQNLDGYLPVNKGGRPRQHLLSLTRRAQKHRLRDLKNQVKTFAEKEEGGDVKSVCLTLFLLALRAGNEHKQADELEAMMQGRGFGLHPAVCLAIRVNTFLSCSQYHKMYRTVKATSGRQIFQPLHTLRNAEKELLPGFHQFEWQPALKNVSTSWDVGIIDGLSGWTVSVDDVPADTISRRFRYDVALVSALKDLEEDIMEGLRERALDDSMCTSGFTVVVKESCDGMGDVSEKHGSGPAVPEKAVRFSFTIMSISIRLEGEDDGITIFQEQKPNSELSCRPLCLMFVDESDHETLTAILGPVVAERKAMMESRLIISVGGLLRSFRFFFRGTGYDEKMVREMEGLEASGSTYICTLCDSTRAEASQNMVLHSITRSHDENLERYEIWRKNPFSESADELRDRVKGVSAKPFMETQPTLDALHCDIGNATEFYKIFQDEIGEVYQKPNPSREERRRWRSTLDKQLRKKMKLKPVMRMNGNYARRLMTREAVEAVCELVPSEERREALLKLMDLYLQMKPVWRSTCPSRDCPDQLCQYSYNSQQFADLLSSMFKYRYDGKITNYLHKTLAHVPEIVERDGSIGAWASEGNESGNKLFRRFRKMNARQSKTFELEDILKHHWLYTSKYLQKFMEAHKNS
In the case of B1, the “stoichiometry N” value is reported as 2.
